In experiment [1] the target is T1, ScPex1^WT (Pex1-FLAG), Saccharomyces cerevisiae (Saccharomyces cerevisiae, UniProt P24004 1-1043).
T1 construct: Pex1, Saccharomyces cerevisiae; Expressed from pETDuet; Forms a heterohexamer with Pex6; also called yeast Pex1; source: E. coli BL21, coexpressed with His-Pex6, purified (Ni-NTA, anti-FLAG M2 agarose, Superose 6)
T1 sequence (looked up): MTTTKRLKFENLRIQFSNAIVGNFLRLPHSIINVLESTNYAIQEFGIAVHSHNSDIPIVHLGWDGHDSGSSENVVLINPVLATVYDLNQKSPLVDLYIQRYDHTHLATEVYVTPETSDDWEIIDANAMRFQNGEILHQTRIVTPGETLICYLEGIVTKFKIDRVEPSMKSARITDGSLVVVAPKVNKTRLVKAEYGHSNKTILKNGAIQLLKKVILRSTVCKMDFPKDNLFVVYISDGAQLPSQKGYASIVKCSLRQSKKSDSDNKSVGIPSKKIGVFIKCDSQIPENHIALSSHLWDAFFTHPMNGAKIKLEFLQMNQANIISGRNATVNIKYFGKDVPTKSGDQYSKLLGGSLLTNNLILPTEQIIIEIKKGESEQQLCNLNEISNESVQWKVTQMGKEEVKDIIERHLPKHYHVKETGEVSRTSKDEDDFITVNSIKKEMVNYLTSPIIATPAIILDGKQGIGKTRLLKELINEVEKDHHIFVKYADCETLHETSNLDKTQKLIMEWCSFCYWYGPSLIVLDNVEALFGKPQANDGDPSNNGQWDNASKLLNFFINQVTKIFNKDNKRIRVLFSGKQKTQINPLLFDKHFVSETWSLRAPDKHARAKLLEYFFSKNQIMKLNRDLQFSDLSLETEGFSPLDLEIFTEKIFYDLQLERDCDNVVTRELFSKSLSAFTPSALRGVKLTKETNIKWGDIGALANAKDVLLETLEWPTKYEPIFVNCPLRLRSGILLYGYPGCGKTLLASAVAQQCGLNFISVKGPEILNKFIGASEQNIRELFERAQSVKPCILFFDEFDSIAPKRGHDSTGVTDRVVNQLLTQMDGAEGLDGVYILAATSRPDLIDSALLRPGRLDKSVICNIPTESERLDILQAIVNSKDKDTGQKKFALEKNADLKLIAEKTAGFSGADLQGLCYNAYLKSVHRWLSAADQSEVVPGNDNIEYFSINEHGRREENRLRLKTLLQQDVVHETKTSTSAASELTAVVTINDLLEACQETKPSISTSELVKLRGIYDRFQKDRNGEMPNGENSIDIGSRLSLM
Nature of the experiment: SEC; coexpressed complex purified by Ni-NTA and anti-FLAG resin, equal concentrations of FLAG eluate loaded on Superose 6 in GF buffer (50-60 mM Hepes pH 7.6, 50 mM NaCl, 50 mM KCl, 5% glycerol, 10 mM MgCl2, 1 mM ATP); fractions by SDS-PAGE and Coomassie. The conditions noted are these: both partners purified.

Experiment [2] addresses T2, ScPex1^G700D (Pex1-FLAG G700D), Saccharomyces cerevisiae (Saccharomyces cerevisiae, UniProt P24004 1-1043, G700D).
T2 construct: Pex1, Saccharomyces cerevisiae, with G700D (homologous to human G843D); source: E. coli BL21, coexpressed with His-Pex6, purified (Ni-NTA, anti-FLAG M2 agarose, Superose 6)
T2 sequence (looked up): T1 sequence (looked up) with G700D
The experiment is described as above. The conditions noted are these: both partners purified.

Numbering of substitutions follows the chain as printed.

B1: ScPex6 (His-Pex6), Saccharomyces cerevisiae (natural protein)
chain: MKASLTFSLSGIYAPCSISRDIYLEYGDKKAECLYGTIRLPQYGPGCTPGKIVHCVLDDSLPFCSIVVPSKLFGFMPTQPTMDFCYFEPILDNVVPVLDSVTFLINEQLYSKLMDLPQEMQQIQFLHYKYNINSMETVVHSRDILTSGLCQILNCSPFPQGLVDFTETQLILVNDTEQKLSALKYANEDEEYALPKIGTNSALSIDLESLPCTISRDLLRPAPHINDDNSIYAFTDAETLLRLDVTSGSFITVSNMGCVRLVKLFVLLLPNGFKKRTIYAPPKIIASFPDCSVVTISKSNIGHTDIPIANQVFISRVGGWLQSQKCFQNIILTTLKKFFSESKRILCQNDLIPIAFDSSMADLNIAEENDESDDEDELGQYYKNDSLVWFFVTSAELDCFSKDNSHFIIDPNRTKLITTNITNRRPLPLSRSNLQRYYGFAETFYYDLHIFPYVRQLVNILETSFNCSQRGITLNASVLLHSTTNNVGKATMVRFASKYLGIHLLEIDCLSLTSNSRQLDSTSKIIGYIRAKCENVLPYASPAVIFLAHLDSILLDVNANQDPEAIKLQKSINFEMSKLLDDFTFKFPGTTFVGSVNNIDNVPSSFRSHMRFEILVPVPSEAQRLRIFQWYLSSHELNRDVQQKVPVSYMDNISFSSLSSYSAGLTPLDIKSIVETARMTATARFYQESKKCGWLPQSILITQEDLSKATSKARNEFSVSIGAPQIPNVTWDDIGGIDFVKGEILDTIDMPLKHPELFTSGMKKRSGILFYGPPGTGKTLMAKAIATNFSLNFFSVKGPELLNMYIGESEANVRRVFQKAREAKPCVIFFDEIDSVAPKRGNQGDSGGVMDRIVSQLLAELDGMSTDADGVFVIGATNRPDLLDEALLRPGRFDKLLYLGIPDTDTKQLNILEALTRKFVLDNDVKLIELAKLCPFNYTGADFYALCSDAMLNAMSRIARMVEKKVSQHNELTGENISTRRWFDKIATKEDTKVVVKMEDFLKAQEQLTPSVSRAELNHYEAVRANFEGA
notes: Pex6, Saccharomyces cerevisiae; Expressed from pCOLADuet; source: E. coli BL21, coexpressed with Pex1-FLAG, purified (Ni-NTA, anti-FLAG M2 agarose, Superose 6)
With B1, the binding result in experiment [1] and in experiment [2] was “binds” throughout.
